We go through 134 substances from the supplement of paper PMC12042874.

± gives the uncertainty stated by the source.

A short description of the series: amyloid nucleation score (Sup35N fusion, yeast selection) (log enrichment); library NNK3; higher = more nucleation; inactive = no reads after selection. A digest of the protocol: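 Libraries of peptides of 20 random codons fused to Sup35N were expressed in psi-negative yeast and induced 24 hours with 100 μM copper sulfate. Selection was 7 days at 30°C on medium lacking adenine and uracil, and plasmid inserts were Illumina-sequenced before and after selection. Nucleation score is the DiMSum log enrichment of output over input reads, centred on the mode score of non-aggregating sequences, and sequences with under 100 input reads were left out.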
As for QSGSTLTMLQWVIPSDSKLM, the amyloid nucleation score entry was “inactive”.
As for EYSVRADPGREMNGEISAWV, the entry is “inactive”.
In the case of SAIPVWGKMRGFYLFYETHC it was “inactive”; in that of DPIYVANARNHRLS, “inactive”; in that of LYSLVV, “inactive”.
In the case of FTSKKLLCLDKPFNIGDCGY it was “inactive”.
In the case of LSKLTSSQAGKG, the amyloid nucleation score result was “inactive”.
In the case of WSKDG it was “inactive”.
In the case of LSFIISCNYTINNNMWV it was 2.91 ± 0.077.
Turning to CVPWWLNMPVLDCTLWNSSV, the amyloid nucleation score entry is “inactive”.
Consider SMNFSSWWRLCCDEGSGSYT, for which the amyloid nucleation score amounted to 0.671 ± 0.19.
As for LNCVSQMRVDRDANYSCNFF, the figure is -0.142 ± 0.78; as for PVKMGVVLCNKWIYSKGTKN, “inactive”.
As for ENPVSCKAIYYTVSIITSFS, the entry is “inactive”; as for DNSCVMMKTGGRYFELFRVV, “inactive”.
The substance GISCNLYVINGICSWYFLVT displayed an amyloid nucleation score of 1.56 ± 0.07.
SRTFVRECKWGFVCRYKVWV: the amyloid nucleation score result was “inactive”.
As for PVLSRITFSNSSDRI, the entry is “inactive”; as for NTRTLSMYAVHGNIRVFMAE, 0.917 ± 0.17; as for YHWSGRLL, “inactive”.
On to LIHICHRVQPHMSCDCVAMW, for which the amyloid nucleation score result is “inactive”.
In the case of MDFCRRQIMLVVAFSCRLWL it was “inactive”; in that of KQVNSCDFLMWMLLALHFKG, “inactive”; in that of YFYFDFNYNMYGVKALLVLC, “inactive”.
For the substance SLMDGFLPNSGEFRIKYAVL, the amyloid nucleation score result is “inactive”.
In the case of QFCVQRFYGVEKKLLTLWGF, the amyloid nucleation score worked out at 0.088 ± 0.75.
In the case of VQISVNSVNLLKRWFIRAGT it was “inactive”.
In the case of ILRLSPTFGRQSYSVKVGLK, the amyloid nucleation score result is “inactive”.
In the case of WKNLSYRGFHYWTALWHMVR, the amyloid nucleation score is -0.12 ± 1.
Regarding GFYSLISQQQFVLNFNGYKM, the amyloid nucleation score was found to be 2.34 ± 0.086.
As for HTWTWDIII, the figure is 0.065 ± 0.23.
SLNILWRSVCFTGCERGYLG yielded an amyloid nucleation score of 0.763 ± 0.2.
In the case of FGRIGSYWTMVQ it was “inactive”; in that of ACSLAFLHICHRHF, 0.712 ± 0.39.
As for CYEPVAGVFCMRIGLTVVGN, the entry is “inactive”; as for TLFGFCAREIVRMRNDHIQV, “inactive”.
As for YDTNLRLFRSRRLSPGWCFR, the amyloid nucleation score entry was “inactive”.
For CYIVGVVGLSTDWFMSGHSD, the amyloid nucleation score is 0.035 ± 0.9.
Take IMSRCISTHLG: the amyloid nucleation score entry is “inactive”.
TCVIKGGCCGLN had an amyloid nucleation score of -0.955 ± 2.5.
In the case of ILFVAGIETFSALSFRWTGV it was “inactive”.
As for ARFFVVGLWCVSIKIVPFFD, the amyloid nucleation score result was “inactive”.
As for RLVMHSRHTMLLHARGLRSR, the entry is “inactive”; as for IVSKW, “inactive”; as for VSGQVVFGLWGYLWLYEEVF, “inactive”.
In the case of TSVWVYTVPSFVGNDIDTS it was “inactive”.
With SNAFVYFRFLTFDSRFCCYY, the amyloid nucleation score turned out to be 1.56 ± 0.074.
As to LNRSSLYFF, the amyloid nucleation score result is “inactive”.
On to AHGNINFSLCDWHHIIQFSM, for which the amyloid nucleation score entry was “inactive”.
As for SGLDSWY, the entry is “inactive”; as for RSDMGSHFHAELLKYEMATM, “inactive”; as for NTQNLNRVVCLGL, “inactive”.
FGYNWDCCRYMHDPRGLVTT: the amyloid nucleation score entry is “inactive”.
On to ELVQKGHGIEWERHGVLFGE, for which the amyloid nucleation score result was “inactive”.
As for SLYVSVLYIYRDY, the figure is 1.77 ± 0.077; as for DNYMRILGLSYPGDFISNFW, “inactive”.
With MYLITGAFLCIHQHG, the amyloid nucleation score was 1.71 ± 0.075.
As for CYFRVAHVLDSRILSRPGML, the entry is “inactive”; as for DQEVC, “inactive”.
As for YWYYGCGSVGFAIRPWMSGI, the figure is 1.58 ± 0.11; as for FVCLLCPMYYVHSTMWMSAR, 2.01 ± 0.057; as for AVAHA, “inactive”.
As for SWTSEGDWHYFGYIEVVWHY, the entry is “inactive”; as for LKAKCVIMSLPLDMGYHGKR, “inactive”.
With MWMLLFGCSSCWWSCNRLSP, the amyloid nucleation score is -0.239 ± 0.8.
As for MNLFFGFWLLLSAFVSHQVC, the amyloid nucleation score entry is “inactive”.
Regarding FTRTREMENCNFLNFYRYMV, the amyloid nucleation score result is “inactive”.
As for KMFSLWFQ, the figure is 1.69 ± 0.12.
As for HTHVSTTTGIFSDRICEW, the entry is “inactive”.
As for HWCYRSFMTPAPPNLLPQPQ, the entry is “inactive”.
As for RQTCFIMVSCYPVKNGNSEI, the amyloid nucleation score stood at 1.48 ± 0.15.
As for CSLTKAVFQRQPLRRSKGTK, the entry is “inactive”; as for LVSMWMQASILLYCNGSNHW, 1.61 ± 0.11; as for CHWNYTKIRHFYEVVGDQTG, “inactive”.
As for VYCHC, the amyloid nucleation score entry is “inactive”.
In the case of YGSIRLNMYWFVCVCTISWI it was 0.661 ± 0.13; in that of GSCRGVRWASRE, “inactive”.
On to YSSSRLI, for which the amyloid nucleation score result was “inactive”.
As to SNWVLACYKI, the amyloid nucleation score result is “inactive”.
As for SRSFKRNLVSMVNLGVRDEM, the entry is “inactive”; as for LIRNEGFCEKS, 0.244 ± 0.14.
In the case of IIVSRWLWWDIGVSRNW it was “inactive”; in that of VTIITMEIWL, 1.64 ± 0.06.
Regarding LIFGVIPCQPR, the amyloid nucleation score entry is “inactive”.
In the case of DPVNLRC it was “inactive”.
Regarding FGAKR, the amyloid nucleation score is 0.909 ± 0.18.
In the case of HRGLWTKATSLYYPFEMWMV it was “inactive”; in that of ADMCWTNRSETYDGELTVGV, “inactive”.
In the case of LLVYFE it was “inactive”; in that of VHAMWKSICNTSCML, 2.53 ± 0.052; in that of LSHSRSNL, “inactive”.
For NWFTMSNFMFYRTFCFIYSS, the amyloid nucleation score result was “inactive”.
For the substance VFNMLGFSDY, the amyloid nucleation score result was “inactive”.
As for VMLNNCRGYLANCDSCSW, the entry is “inactive”.
The substance VFLHVWCGRVGKL registered an amyloid nucleation score of -0.089 ± 0.98.
With LVVSVCKK, the amyloid nucleation score result was “inactive”.
As to SLLTDTFFIVLWTFT, the amyloid nucleation score entry was “inactive”.
As for YFFWDLEILMHPFFQTVRNK, the entry is “inactive”; as for VCSSGQKSLKMLRIFHIFNP, -0.352 ± 0.87; as for SDRIDNFAWINFCK, 0.831 ± 0.18.
In the case of GYNVKGNP it was “inactive”; in that of VCYYRQACTITNLLVMVFVC, “inactive”.
For the substance WLWTLYDG, the amyloid nucleation score entry is “inactive”.
Consider ESLEMVWPRAMR, for which the amyloid nucleation score entry is “inactive”.
Turning to RSNTQGLPQYKC, the amyloid nucleation score entry is “inactive”.
For the substance VYVVRANRFMRSPQLRVLFS, the amyloid nucleation score result is “inactive”.
In the case of IPVLLPSMCINNKFMVSSWN it was 1.39 ± 0.1; in that of SGLSNRGCCIMSY, “inactive”.
As for YFRQFSVYYLFFNLMYILHA, the entry is “inactive”; as for GNGNFIRY, “inactive”; as for LPLFSLSTFFFVCVVCL, 0.464 ± 0.14.
Turning to SLYKYRIWCMVFVVYFSQSQ, the amyloid nucleation score entry was “inactive”.
Take KCKFNWVCEVVR: the amyloid nucleation score result was “inactive”.
Turning to TTIFLDS, the amyloid nucleation score entry is “inactive”.
As for CNVLEKYTLE, the entry is “inactive”; as for NEWIKDINVI, “inactive”; as for SSVRMRISFMINGRQTA, 0.833 ± 0.15.
Regarding MCFTLIKLLIQWKREDQIDE, the amyloid nucleation score amounted to 1.07 ± 0.096.
As for DRSIS, the amyloid nucleation score result was “inactive”.
On to YYPLLIPLY, for which the amyloid nucleation score entry is “inactive”.
Consider RLKLNGAQGEFSGVWLDIWA, for which the amyloid nucleation score result is “inactive”.
VKVCEVSMQNRIFTGHAHFS: the amyloid nucleation score entry was “inactive”.
In the case of GSWDVKLSF it was “inactive”.
On to WAEREDAAVSLGLWYGDTCF, for which the amyloid nucleation score entry was “inactive”.
As for VIKALRMVCMGHWSYSVTLS, the entry is “inactive”; as for YSCVWNGKWCYYSTANDLS, “inactive”; as for SAYYYGKY, “inactive”.
On to IRNIRFVFLILIDWSSRNSV, for which the amyloid nucleation score entry is “inactive”.
For the substance KFYLILVA, the amyloid nucleation score entry was “inactive”.
In the case of KQVNQSRLMISGGNCRGRAN it was “inactive”; in that of YWTANTDYTNVIGYKNTYVH, -0.337 ± 0.33; in that of MRLADLGMLGARTDQDRLPT, “inactive”.
In the case of NNFNISLRVRRSFKKCFFVR it was 1.85 ± 0.077; in that of CAYDINYLCSREWVSNSCWG, “inactive”.
